Source: patent US20060121032A1

target: FcγRIIIa on human PBMCs expressing heterozygous V158/F158 FcγRIIIa (human) (UniProt P08637); experiment: cell-based or functional assay
Sequence (P08637 17-254): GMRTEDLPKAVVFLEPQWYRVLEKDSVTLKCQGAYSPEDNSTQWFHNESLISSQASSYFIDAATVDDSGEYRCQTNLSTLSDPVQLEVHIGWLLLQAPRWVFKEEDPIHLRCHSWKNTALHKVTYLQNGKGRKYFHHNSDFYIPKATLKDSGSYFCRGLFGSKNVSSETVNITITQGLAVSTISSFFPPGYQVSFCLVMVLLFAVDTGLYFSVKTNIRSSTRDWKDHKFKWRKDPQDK

Row | Substance | ADCC EC50 (ng/ml), DoHH-2 target cells, human PBMCs | ADCC log(EC50), DoHH-2 target cells, human PBMCs
1 | alemtuzumab S239D/I332E (antibody) | 3 ng/mL | 0.49 log(ng/ml)
2 | alemtuzumab V264I/I332E (antibody) | 4 ng/mL | 0.6 log(ng/ml)

target: extracellular region of human F158 FcγRIIIa with C-terminal 6×His-tag and GST-tag (human) (UniProt P08637); experiment: SPR, receptor on chip
Sequence (P08637 17-208): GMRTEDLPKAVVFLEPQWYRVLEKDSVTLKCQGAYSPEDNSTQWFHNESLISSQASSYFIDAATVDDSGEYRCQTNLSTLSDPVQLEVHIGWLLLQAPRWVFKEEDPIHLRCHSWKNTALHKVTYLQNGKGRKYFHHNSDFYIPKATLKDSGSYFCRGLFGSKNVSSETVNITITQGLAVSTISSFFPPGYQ

Row | Substance | Kd
3 | WT alemtuzumab (antibody) | 730 nM
4 | alemtuzumab I332E (antibody) | 72 nM
5 | alemtuzumab S298A (antibody) | 285 nM
6 | alemtuzumab S298A/E333A/K334A (antibody) | 156 nM
7 | alemtuzumab V264I (antibody) | 550 nM
8 | alemtuzumab V264I/I332E (antibody) | 52 nM
